We go through 2 substances from PMC10467048.

Assay [1] deals with CTB−JEV EDIII (not stated | Japanese encephalitis virus). The assay is described as follows: PAGE after incubation at different temperatures.
Assay [2] shares this target. Kind of assay: PAGE under non-reduced conditions (without boiling, without DTT).
The target of assay [3] is LTB−JEV EDIII (TEV cut) (not stated | Japanese encephalitis virus). The assay is described as follows: SEC. A general note: Size exclusion chromatography separates by hydrodynamic size, large species first.
The target is the same in assay [4]. Kind of assay: PAGE after incubation at different temperatures.
The target is the same in assay [5]. Kind of assay: PAGE under non-reduced conditions (without boiling, without DTT).

Regarding CTB−JEV EDIII, the stoichiometry N in assay [1] and in assay [2] was 5 in each case.

Turning to LTB−JEV EDIII (TEV cut), the stoichiometry N in assay [3], in assay [4] and in assay [5] was 5 in each case.
